The source of these data is US20040258659A1 (UNIVERSITE PIERRE ET MARIE CURIE PARIS VI, published 2004).

Residue numbers refer to the chain shown, from its start.

Test [1] has as its target T1, CCR5 (UniProt P51681 1-352, limits assumed). Kind of test: cell-based or functional assay.
For test [2], the target named is T1, CCR5. Kind of test: competitive radioligand binding on whole CHO-CCR5 cells at 4 C, 12 pM [125I]MIP-1α tracer. Here is the method:
Assays were carried out essentially as (11). CHO—CCR5 cells were seeded into 24 well plates (8×10⁴ cells/well). […] After incubation, cells were washed, lysed, and the lysaes counted using a Beckman Gamma 4000 scintillation counter. Determinations were performed in duplicate and IC₅₀ values derived from monophasic curves (competition binding; one-site) fitted using Prism software (GraphPad).

T1 sequence (P51681 whole entry): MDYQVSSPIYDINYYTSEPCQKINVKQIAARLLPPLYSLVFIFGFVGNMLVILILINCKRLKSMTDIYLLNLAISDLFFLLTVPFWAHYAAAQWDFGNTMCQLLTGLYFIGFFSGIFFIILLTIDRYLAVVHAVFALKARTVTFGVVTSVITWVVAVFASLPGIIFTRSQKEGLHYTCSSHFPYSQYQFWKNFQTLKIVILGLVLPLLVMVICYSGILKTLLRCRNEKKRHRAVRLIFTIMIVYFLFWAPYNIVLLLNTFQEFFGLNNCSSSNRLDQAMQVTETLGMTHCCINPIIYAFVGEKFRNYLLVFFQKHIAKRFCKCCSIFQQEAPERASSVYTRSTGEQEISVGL

B1: LSPVSSQSSA-RANTES (10-68) (P1) (ligand, human)
chain: LSPVSSQSSACCFAYIARPLPRAHIKEYFYTSGKCSNPAVVFVTRKNRQVCANPEKKWVREYINSLEMS
notes: range 33-91; Made by total chemical synthesis; The range 10-68 counts on mature RANTES, not on the precursor; also called mutant P1; variant P1
As to B1, the “IC50, R5-tropic envelope-mediated cell fusion assay” value with CCR5 [1] came out at 7 nM. Also, in the test with CCR5 [2], the half-maximal inhibitory concentration (IC50) (as a rule, the midpoint of a concentration-inhibition curve) stood at 0.3 nM.

B2: FSPLSSQSSA-RANTES (10-68) (P2) (ligand, human)
chain: B1 chain with L1F, V4L
notes: range 33-91; Made by total chemical synthesis; The range 10-68 counts on mature RANTES, not on the precursor; also called mutant P2; RANTES P2
Regarding B2, in the test with CCR5 [1], the “IC50, R5-tropic envelope-mediated cell fusion assay” value stood at 0.6 nM. For the same molecule, in the test with CCR5 [2], the half-inhibitory concentration (IC50) is 0.2 nM.
